From patent US20220056091A1 (BRIGHT PEAK THERAPEUTICS, published 2022) come the findings set out here.

A word on the Kd: it is the free concentration of one partner at which half of the binding sites on the other are occupied at equilibrium, for simple one-to-one binding. For orientation: koff means the rate constant with which the complex falls apart. Higher therefore signals a short-lived complex. Usually kon stands for the rate constant with which the complex forms. What is called EC50 (read off the curve) is the concentration that produces a half-maximal response.

Test [1] has as its target T1, IL-18Rα/β heterodimer (Fc fused human IL-18Rα mixed and pre-incubated with Fc fused human IL-18Rβ) (human, UniProt Q13478 19-329; O95256 20-356, limits assumed).
T1 construct: 6 µg/mL of each receptor mixed and pre-incubated 30 min before capture on anti-human IgG; also called alpha/beta heterodimer IL-18 receptor; not shown: Fc part
T1 sequence (looked up) 1: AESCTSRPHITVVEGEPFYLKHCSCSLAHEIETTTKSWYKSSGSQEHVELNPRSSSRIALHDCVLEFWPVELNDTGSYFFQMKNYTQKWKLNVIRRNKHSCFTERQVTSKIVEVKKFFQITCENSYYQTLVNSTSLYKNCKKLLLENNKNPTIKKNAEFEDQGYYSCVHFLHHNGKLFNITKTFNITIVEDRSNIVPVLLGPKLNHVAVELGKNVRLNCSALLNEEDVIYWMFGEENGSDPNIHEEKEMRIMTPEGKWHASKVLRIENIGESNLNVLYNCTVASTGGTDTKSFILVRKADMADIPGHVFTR
T1 sequence (looked up) 2: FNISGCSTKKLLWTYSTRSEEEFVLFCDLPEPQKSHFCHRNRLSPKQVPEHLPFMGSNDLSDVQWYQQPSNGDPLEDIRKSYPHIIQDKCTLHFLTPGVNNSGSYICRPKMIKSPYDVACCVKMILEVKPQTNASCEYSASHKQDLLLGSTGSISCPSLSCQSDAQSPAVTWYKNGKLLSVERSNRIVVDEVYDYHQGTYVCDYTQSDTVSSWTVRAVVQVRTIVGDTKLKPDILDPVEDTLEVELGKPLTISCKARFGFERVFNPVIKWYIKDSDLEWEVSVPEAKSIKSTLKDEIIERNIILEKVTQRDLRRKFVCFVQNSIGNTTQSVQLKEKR
Put plainly: SPR, Fc-IL-18Rα/Fc-IL-18Rβ mix captured, heterogeneous ligand model. Here is the method:
(§1) The interaction of the wild type and of modified IL-18 polypeptides with human IL-18 receptor subunits were measured with Surface Plasmon Resonance (SPR) technology. Anti-human IgG antibodies were bound by amine coupling onto a CM5 chip to capture 6 μg/mL of Fc fused human IL-18Rα, 6 μg/mL of Fc fused human IL-18Rβ, or 2 μg/mL of Fc fused human IL-18BP isoform a (IL-18BPa) for 30 min before capture. In other settings, 6 μg/mL of alpha and beta IL-18 receptors were mixed and pre-incubated for 30 min before capture of the alpha/beta heterodimer IL-18 receptor.
(§2) The kinetic binding of the IL-18 analytes were measured with a Biacore 8K instrument in two-fold serial dilutions starting at 1 μM down to 0.98 nM. Regeneration of the surface back to amine coupled anti IgG antibody was done after every concentration of analyte. To measure the protein association to the receptors, the samples were injected with a flow rate of 50 μL/min for 60 s, followed by 300 s buffer only to detect the dissociation. The used running buffer was 1×PBS with 0.05% Tween20. The relative response units (RU, Y-axis) are plotted against time (s, X-axis) and analyzed in a kinetic 1:1 binding model for the monomer receptor binding and for the binding to the IL-18BP. A kinetic heterogenous ligand fit model was applied for the alpha/beta heterodimer binding.
Modified IL-18 polypeptides bearing sequence modifications E06K, K53A, S55A, and T63A maintained binding affinity to IL-18Rα/β heterodimer.
(In SPR one partner is held on a chip, and binding of the other changes the refractive index at the surface.)

For test [2], the target named is IL-18R on HEK-Blue IL18R reporter cells (InvivoGen, #hkb-hmil18). Put plainly: cell-based or functional assay.
Test [3] has as its target anti-IL18 monoclonal antibody (MBL, cat #D043-3, Clone 25-2G). The test can be described thus: sandwich ELISA, capture clone 25-2G, detection biotinylated clone 159-12B; in the presence of IL-18BP (form and concentration not given); the signal depends on both antibodies. How it is done: (§3) Immune-related PD effects were determined by analyzing cytokine levels in plasma. The following plasma cytokines were measured: IFNγ, CXCL9, CXCL10, GM-CSF, IL-1a, FasL, and IL-18BP. The activation status of leukocytes was determined by monitoring surface markers: ICOS, PD-1, CD25, CD69, and Fas. Bioanalysis was conducted by detecting the total amount of IL-18 variants (free and IL-18BP-complexed, see FIG. 7). Corning high-binding half-area plates (Fisher Scientific, Reinach, Switzerland) were coated overnight at 4° C. with 25 μl of anti-IL18 monoclonal antibody (MBL, cat #D043-3, Clone 25-2G) at 2 μg/ml in PBS. Plates were then washed four times with 100 μl of PBS-0.02% Tween20. Plates surfaces were blocked with 25 μl of PBS-0.02% Tween20-1% BSA at 37° C. during 1 h. Plates were then washed four times with 100 μl of PBS-0.02% Tween20. Twenty-five microliters of IL-18 variants (or of mouse plasma) were added in […] serial dilutions starting at 50 nM down to 0.02 nM into PBS-0.02% Tween20-0.1% BSA and incubated at 37° C. during 2h. […] Plates were incubated during 2h at 37° C. and were then washed four times with 100 μl of PBS-0.02% Tween20. […] ELISA signal was then measured at 450 nm on an EnSpire plate reader from Perkin Elmer (Schwerzenbach, Switzerland)
(In general: In an ELISA, binding on a coated surface is turned into a signal by an enzyme label.)

Test [4] shares this target. The test can be described thus: sandwich ELISA, capture clone 25-2G, detection biotinylated clone 159-12B; without IL-18BP; the signal depends on both antibodies. How it is done:
as §3

Test [5] has as its target T2, Fc fused human IL-18Rα (human, UniProt Q13478 19-329, limits assumed).
T2 construct: also called IL-18Rα monomer; IL-18 receptor alpha; not shown: Fc part
T2 sequence (looked up): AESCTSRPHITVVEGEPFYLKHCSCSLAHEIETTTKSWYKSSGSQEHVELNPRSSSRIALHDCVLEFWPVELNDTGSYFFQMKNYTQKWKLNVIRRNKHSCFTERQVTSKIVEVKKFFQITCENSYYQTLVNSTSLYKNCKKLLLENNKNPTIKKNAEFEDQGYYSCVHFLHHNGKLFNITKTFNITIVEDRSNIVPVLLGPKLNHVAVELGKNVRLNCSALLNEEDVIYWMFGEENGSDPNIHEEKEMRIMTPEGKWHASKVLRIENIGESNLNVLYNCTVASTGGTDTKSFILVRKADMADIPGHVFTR
The test can be described thus: SPR, Fc-IL-18Rα captured, 1:1 model. How it is done: as §1, §2
Modified IL-18 polypeptides having sequence modifications E06K, K53A, S55A, and T63A maintained binding affinity to IL-18Rα.

B1: Modified IL-18 polypeptide of SEQ ID NO: 2 (E06K, K53A, S55A) (ligand)
chain: YFGKLKSKLSVIRNLNDQVLFIDQGNRPLFEDMTDSDCRDNAPRTIFIISMYADAQPRGMAVTISVKCEKISTLSCENKIISFKEMNPPDNIKDTKSDIIFFQRSVPGHDNKMQFESSSYEGYFLACEKERDLFKLILKKEDELGDRSIMFTVQNED
In test [1], B1 showed a Kd of 1930 nM, an off-rate constant (koff) of 0.0734 s⁻¹ and a kon of 39200 M⁻¹ s⁻¹. Besides, in test [2], the “EC50 (pM), HEK-Blue IL18R reporter assay” value was 272 pM and the “Potency loss Mutant/NWT, HEK-Blue IL18R reporter assay” value was found to be 81.8 fold. Besides, in test [3], the “EC50 (read off the curve)” value was about 0.2 nM. The concentration for a half-maximal effect (EC50 (read off the curve)) in test [4] is about 0.2 nM. In test [5], this molecule returned a Kd of 2000 nM, a koff of 0.0627 s⁻¹ and a kon of 31800 M⁻¹ s⁻¹.
